Experimental data taken from the Human Domainome abundance scans (Beltran et al. 2025).
± gives the uncertainty stated by the source.

B1: Chromodomain-helicase-DNA-binding protein 4, residues 444 to 496; numbered along this chain, Q14839 (parent)
chain: EDDHHMEFCRVCKDGGELLCCDTCPSSYHIHCLNPPLPEIPNGEWLCPRCTCP

Variants of: B1
Experiment: abundance fitness (aPCA) (normalised: wild type 0, dead -1); higher = more abundant; growth selection in yeast, the domain comes from the species named
Details: Homo sapiens

Point of comparison: L46D, abundance fitness -0.252 ± 0.084. Against it:
- L18R — lower, -0.394 ± 0.05
- G16Y — lower, -0.83 ± 0.11
- G16R — lower, -0.424 ± 0.073
- G16S — within error, -0.279 ± 0.053
- G16I — lower, -0.74 ± 0.093
- G16M — lower, -0.579 ± 0.089
- G16V — lower, -0.842 ± 0.1
- I30A — higher, -0.003 ± 0.056
- I30L — higher, -0.023 ± 0.043
- I30F — higher, -0.037 ± 0.067
- R49M — higher, -0.101 ± 0.054
- R49H — higher, 0.047 ± 0.053
- R49W — within error, -0.132 ± 0.051
- R49G — higher, 0.069 ± 0.041
- R49N — higher, 0.04 ± 0.063
- E44V — within error, -0.143 ± 0.055
- E44F — within error, -0.152 ± 0.08
- E44N — higher, 0.095 ± 0.074
- E44G — higher, 0.03 ± 0.056
- E44L — higher, -0.024 ± 0.05
- E44K — higher, 0.064 ± 0.073
- E44C — within error, -0.21 ± 0.068
- V11W — within error, -0.209 ± 0.071
- V11C — within error, -0.255 ± 0.067
- V11T — higher, -0.019 ± 0.05
- V11M — higher, -0.026 ± 0.061
- L46Q — higher, -0.019 ± 0.053
- L46E — higher, -0.092 ± 0.054
- L46Y — higher, -0.061 ± 0.07
- L46W — within error, -0.266 ± 0.064
- L46N — higher, 0.211 ± 0.066
- W45G — lower, -0.487 ± 0.05
- W45V — lower, -0.431 ± 0.054
- W45A — lower, -0.517 ± 0.057
- W45Q — lower, -0.509 ± 0.065
- W45N — lower, -0.428 ± 0.079
- W45Y — within error, -0.357 ± 0.053
- W45M — within error, -0.398 ± 0.063
- W45S — lower, -0.443 ± 0.048
- W45F — within error, -0.085 ± 0.084
- W45P — lower, -0.503 ± 0.046
- W45R — lower, -0.446 ± 0.044
- P35A — within error, -0.296 ± 0.057
- P35W — lower, -0.593 ± 0.047
- P35N — within error, -0.302 ± 0.064
- P35T — within error, -0.198 ± 0.051
- P35V — lower, -0.399 ± 0.059
- P35Q — within error, -0.226 ± 0.064
- L19G — lower, -0.488 ± 0.052
- L19H — within error, -0.189 ± 0.055
- L19P — lower, -0.484 ± 0.063
- L19S — within error, -0.291 ± 0.046
- L19I — higher, 0.1 ± 0.068
- L19A — higher, 0.118 ± 0.048
- C12V — lower, -0.7 ± 0.063
- C12G — lower, -0.53 ± 0.046
- C12F — lower, -0.896 ± 0.084
- C12S — lower, -0.971 ± 0.058
- C12R — lower, -0.931 ± 0.045
- C12H — lower, -0.83 ± 0.074
- C12W — lower, -0.822 ± 0.051
- C12M — lower, -1.19 ± 0.074
- D3A — within error, -0.211 ± 0.045
- D3V — within error, -0.174 ± 0.05
- D3G — within error, -0.292 ± 0.057
- D3P — within error, -0.174 ± 0.064
- D3K — higher, 0.304 ± 0.073
- D3C — higher, 0.27 ± 0.068
- D3Y — higher, 0.319 ± 0.069
- D3Q — higher, 0.221 ± 0.062
- N42Y — within error, -0.197 ± 0.049
- N42C — higher, -0.061 ± 0.054
- N42K — higher, 0.081 ± 0.063
- N42L — higher, -0.077 ± 0.047
- N42P — higher, -0.065 ± 0.055
- N42R — higher, -0.022 ± 0.053
- N42A — higher, 0.037 ± 0.06
- N42S — higher, -0.063 ± 0.05
- N42H — higher, -0.094 ± 0.055
- S26P — lower, -0.625 ± 0.067
- S26G — higher, 0.029 ± 0.059
- S26V — within error, -0.132 ± 0.063
